Results on 15 molecules are retold here after US20040146507A1 (Genentech, published 2004).

Where a chain is given by its changes, count along the chain named.

First the molecules themselves.
B1: HuIgG1 mutant L2 (antibody, V domains shown)
VH: EVQLVESGGGLVQPGGSLRLSCAASGYSFTGHWMNWVRQAPGKGLEWVGMIHPSDSETRYNQKFKDRFTISVDKSKNTLYLQMNSLRAEDTAVYYCARGIYFYGTTYFDYWGQGTLVTVSS
VL: DIQMTQSPSSLSASVGDRVTITCRASKTISKYLAWYQQKPGKAPKLLIYAGAALQSGVPSRFSGSGSGTDFTLTISSLQPEDFATYYCQQHNEYPLTFGQGTKVEIKR
notes: HuIgG1 mutant, human IgG1; Kabat numbering
B2: HuIgG1 mutant SerH55Asn (antibody, V domains shown)
VH: B1 VH with S56N
VL: DIQMTQSPSSLSASVGDRVTITCRASKTISKYLAWYQQKPGKAPKLLIYSGSTLQSGVPSRFSGSGSGTDFTLTISSLQPEDFATYYCQQHNEYPLTFGQGTKVEIK
notes: as for B1
B3: HuIgG1 mutant TyrH99Ala (antibody, V domains shown)
VH: B1 VH with Y103A
VL: B2 VL
notes: as for B1
B4: HuIgG1 mutant LysH73Ala (antibody, V domains shown)
VH: B1 VH with K74A
VL: B2 VL
notes: as for B1
B5: HuIgG1 mutant HisH32Ala (antibody, V domains shown)
VH: B1 VH with H32A
VL: B2 VL
notes: as for B1
B6: HuIgG1 mutant H3B (antibody, V domains shown)
VH: B1 VH with T105A, T106A, Y107A
VL: B2 VL
notes: as for B1
B7: HuIgG1 mutant TyrH97Ala (antibody, V domains shown)
VH: B1 VH with Y101A
VL: B2 VL
notes: as for B1
B8: HuIgG1 mutant HisH52Ser (antibody, V domains shown)
VH: B1 VH with H52S
VL: B2 VL
notes: as for B1
B9: HuIgG1 mutant ThrH100aAla (antibody, V domains shown)
VH: B1 VH with T105A
VL: B2 VL
notes: as for B1
B10: HuIgG1 mutant SerL52Ala (antibody, V domains shown)
VH: B1 VH
VL: B1 VL with A50S, A53T
notes: as for B1
B11: HuIgG1 mutant SerH28Ala (antibody, V domains shown)
VH: B1 VH with S28A
VL: B2 VL
notes: as for B1
B12: HuIgG1 mutant ThrH100bAla (antibody, V domains shown)
VH: B1 VH with T106A
VL: B2 VL
notes: as for B1
B13: HuIgG1 mutant H1 (antibody, V domains shown)
VH: B1 VH with S28A, T30A, H32A
VL: B2 VL
notes: as for B1
B14: HuIgG1 mutant TyrH100cAla (antibody, V domains shown)
VH: B1 VH with Y107A
VL: B2 VL
notes: as for B1
B15: HuIgG1 mutant TyrL94Ala (antibody, V domains shown)
VH: B1 VH
VL: B1 VL with A50S, A52S, A53T, Y94A
notes: as for B1

The target in this experiment is T1, human CD11a (human, UniProt P20701 26-1170).
T1 construct: whole, on cells; On Jurkat T-cells or human peripheral blood mononuclear cells, as part of LFA-1; also called CD11a on Jurkat cells; alpha subunit of LFA-1
Kind of experiment: FACScan, Jurkat cells. On the procedure:
Aliquots of 10⁶ Jurkat T-cells were incubated with serial dilutions of humanized and control antibodies in PBS-0.1% BSA-10 mM sodium azide for 45 min at 4° C. The cells were washed and then incubated in fluorescein-conjugated goat anti-human F(ab′)₂ (Organon Teknika, Westchester, Pa.) for 45 min at 4° C. Cells were washed and analysed on a FACScan (Becton Dickinson, Mountain View, Calif.). 8×10³ cells were acquired by list mode and gated by forward light scatter versus side light scatter, thereby excluding dead cells and debris.
To determine which CDR residues were involved in binding to human CD11a an alanine-scan (Cunningham et al., Science 244:1081 (1989)) was performed on the CDR residues of HuIgG1. Each mutant was tested for binding to CD11a on Jurkat cells. In the light chain only CDR-L3 contributes to binding.
On to B1, for which the “Var.EC50/HuIgG1 EC50” value was determined as 1.1 ratio.

As for B2, the “Var.EC50/HuIgG1 EC50” value is 2.1 ratio.

With B3, the “Var.EC50/HuIgG1 EC50” value came out at 1.4 ratio.

Take B4: the “Var.EC50/HuIgG1 EC50” value was 5.2 ratio.

As to B5, the “Var.EC50/HuIgG1 EC50” value turned out to be 2.3 ratio.

On to B6, for which the “Var.EC50/HuIgG1 EC50” value stood at 34.7 ratio.

On to B7, for which the “Var.EC50/HuIgG1 EC50” value was 10.9 ratio.

As for B8, the “Var.EC50/HuIgG1 EC50” value is 5 ratio.

For B9, the “Var.EC50/HuIgG1 EC50” value worked out at 2.3 ratio.

Consider B10, for which the “Var.EC50/HuIgG1 EC50” value stood at 1.1 ratio.

Turning to B11, the “Var.EC50/HuIgG1 EC50” value was 6.9 ratio.

In the case of B12, the “Var.EC50/HuIgG1 EC50” value was found to be 1.4 ratio.

On to B13, for which the “Var.EC50/HuIgG1 EC50” value turned out to be 5.9 ratio.

On to B14, for which the “Var.EC50/HuIgG1 EC50” value was 7.6 ratio.

Take B15: the “Var.EC50/HuIgG1 EC50” value was 11.8 ratio.
